From paper PMC12177071, “Divergence in a eukaryotic transcription factor’s co-TF dependence involves multiple intrinsically disordered regions”

T1: CgPho4 DBD (Candida glabrata, UniProt Q6FVW0 452-533)
T1 sequence: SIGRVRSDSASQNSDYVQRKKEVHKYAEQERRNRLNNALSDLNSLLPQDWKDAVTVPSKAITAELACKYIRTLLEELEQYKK

T2: ScPho4 DBD (Saccharomyces cerevisiae, UniProt P07270 236-312)
T2 sequence: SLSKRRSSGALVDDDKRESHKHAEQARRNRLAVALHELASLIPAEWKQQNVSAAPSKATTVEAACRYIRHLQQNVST

B1: 17-bp consensus E-box, EMSA probe (dsDNA)
DNA 1: CTAGTCCCACGTGTGAG
DNA 2: CTCACACGTGGGACTAG
B2: 17-bp consensus E-box, BLI probe (dsDNA)
DNA 1: CTAGTCCCACGTGTGAG
DNA 2: CTCACACGTGGGACTAG

Columns and labels:
CgPho4 DBD [1] = target: T1, CgPho4 DBD; assay: EMSA; 5 mM MgCl2, 1 mM EDTA; 4 C; BLI: 1x PBS pH 7.4, 0.01% BSA, 0.002% Tween-20, 0.005% sodium azide, 30 C; EMSA: 20 mM Tris-HCl pH 8, 150 mM KCl, 10% glycerol, 5 mM MgCl2, 1 mM EDTA, 1 mM DTT, 4 C; settings: protein: recombinant; tags: C-terminal 6xHis; chain copies: 2; label: IR700; blunt
ScPho4 DBD [2] = target: T2, ScPho4 DBD; assay: as above; settings: protein: recombinant; tags: C-terminal 6xHis; chain copies: 2; label: IR700; blunt
CgPho4 DBD [3] = target: T1, CgPho4 DBD; assay: BLI; mean of 5 replicates; 30 C; BLI: 1x PBS pH 7.4, 0.01% BSA, 0.002% Tween-20, 0.005% sodium azide, 30 C; EMSA: 20 mM Tris-HCl pH 8, 150 mM KCl, 10% glycerol, 5 mM MgCl2, 1 mM EDTA, 1 mM DTT, 4 C; settings: protein: recombinant; tags: C-terminal 6xHis; chain copies: 2; blunt
ScPho4 DBD [4] = target: T2, ScPho4 DBD; assay: as above; settings: protein: recombinant; tags: C-terminal 6xHis; chain copies: 2; blunt

Row | Binder | Kd (CgPho4 DBD [1]) [nM] | Kd (ScPho4 DBD [2]) [nM] | Kd (CgPho4 DBD [3]) [nM] | Kd (ScPho4 DBD [4]) [nM]
1 | B1 | 1.9 | 5.5 |  | 
2 | B2 |  |  | 1.2 | 5.2
